Test results as given in IntAct's records for PubMed 21979047.

B1: Complement factor H (Homo sapiens), P08603 (parent)
chain: MRLLAKIICLMLWAICVAEDCNELPPRRNTEILTGSWSDQTYPEGTQAIYKCRPGYRSLGNVIMVCRKGEWVALNPLRKCQKRPCGHPGDTPFGTFTLTGGNVFEYGVKAVYTCNEGYQLLGEINYRECDTDGWTNDIPICEVVKCLPVTAPENGKIVSSAMEPDREYHFGQAVRFVCNSGYKIEGDEEMHCSDDGFWSKEKPKCVEISCKSPDVINGSPISQKIIYKENERFQYKCNMGYEYSERGDAVCTESGWRPLPSCEEKSCDNPYIPNGDYSPLRIKHRTGDEITYQCRNGFYPATRGNTAKCTSTGWIPAPRCTLKPCDYPDIKHGGLYHENMRRPYFPVAVGKYYSYYCDEHFETPSGSYWDHIHCTQDGWSPAVPCLRKCYFPYLENGYNQNYGRKFVQGKSIDVACHPGYALPKAQTTVTCMENGWSPTPRCIRVKTCSKSSIDIENGFISESQYTYALKEKAKYQCKLGYVTADGETSGSITCGKDGWSAQPTCIKSCDIPVFMNARTKNDFTWFKLNDTLDYECHDGYESNTGSTTGSIVCGYNGWSDLPICYERECELPKIDVHLVPDRKKDQYKVGEVLKFSCKPGFTIVGPNSVQCYHFGLSPDLPICKEQVQSCGPPPELLNGNVKEKTKEEYGHSEVVEYYCNPRFLMKGPNKIQCVDGEWTTLPVCIVEESTCGDIPELEHGWAQLSSPPYYYGDSVEFNCSESFTMIGHRSITCIHGVWTQLPQCVAIDKLKKCKSSNLIILEEHLKNKKEFDHNSNIRYRCRGKEGWIHTVCINGRWDPEVNCSMAQIQLCPPPPQIPNSHNMTTTLNYRDGEKVSVLCQENYLIQEGEEITCKDGRWQSIPLCVEKIPCSQPPQIEHGTINSSRSSQESYAHGTKLSYTCEGGFRISEENETTCYMGKWSSPPQCEGLPCKSPPEISHGVVAHMSDSYQYGEEVTYKCFEGFGIDGPAIAKCLGEKWSHPPSCIKTDCLSLPSFENAIPMGEKKDVYKAGEQVTYTCATYYKMDGASNVTCINSRWTGRPTCRDTSCVNPPTVQNAYIVSRQMSKYPSGERVRYQCRSPYEMFGDEEVMCLNGNWTEPPQCKDSTGKCGPPPPIDNGDITSFPLSVYAPASSVEYQCQNLYQLEGNKRITCRNGQWSEPPKCLHPCVISREIMENYNIALRWTAKQKLYSRTGESVEFVCKRGYRLSSRSHTLRTTCWDGKLEYPTCAKR

Variants of: B1
Settings: with albu_bovin ALB

effect of a mutation on the interaction	Variant
decreasing interaction strength	Y402H
